For data set [1], the target named is T1, TRIM25 CC-PRY/SPRY (Homo sapiens, UniProt Q14258 189-630). Briefly: ITC. To be noted: mean of replicates 15;29;20;9; ITC: 20 mM MES pH 6.5, 75 mM NaCl, 0.5 mM TCEP, 20 C; protein NMR: 20 mM sodium phosphate pH 6.5, 150 mM NaCl, 2 mM TCEP, 293 K.
Data set [2] has as its target T2, TRIM25 CC (Homo sapiens, UniProt Q14258 189-379). Description: ITC. To be noted: mean of replicates 59;61;63; ITC: 20 mM MES pH 6.5, 75 mM NaCl, 0.5 mM TCEP, 20 C; protein NMR: 20 mM sodium phosphate pH 6.5, 150 mM NaCl, 2 mM TCEP, 293 K.
The target of data set [3] is T1, TRIM25 CC-PRY/SPRY. Description: ITC; ITC: 20 mM MES pH 6.5, 75 mM NaCl, 0.5 mM TCEP, 20 C; protein NMR: 20 mM sodium phosphate pH 6.5, 150 mM NaCl, 2 mM TCEP, 293 K. Conditions: protein: recombinant, tags: His-Trx, cleaved (3C), chain copies: 2. In general terms: ITC needs no label: the signal is the heat of the interaction.
Target sequence in this assay (Q14258 189-630): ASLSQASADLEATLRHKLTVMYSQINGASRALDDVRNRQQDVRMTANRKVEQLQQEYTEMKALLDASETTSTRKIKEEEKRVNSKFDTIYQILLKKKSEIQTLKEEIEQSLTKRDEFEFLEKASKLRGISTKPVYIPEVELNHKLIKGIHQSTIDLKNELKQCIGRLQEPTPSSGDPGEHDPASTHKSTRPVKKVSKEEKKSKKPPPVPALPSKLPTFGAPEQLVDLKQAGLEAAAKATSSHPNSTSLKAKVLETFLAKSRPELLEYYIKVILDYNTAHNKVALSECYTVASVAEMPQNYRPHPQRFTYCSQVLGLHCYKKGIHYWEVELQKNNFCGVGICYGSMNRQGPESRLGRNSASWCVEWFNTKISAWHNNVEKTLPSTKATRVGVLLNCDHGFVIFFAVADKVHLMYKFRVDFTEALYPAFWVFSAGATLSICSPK
Data set [4] has as its target T3, TRIM25 PRY/SPRY (Homo sapiens, UniProt Q14258 439-630). Description: NMR; CSPs in binding site 2 only; ITC: 20 mM MES pH 6.5, 75 mM NaCl, 0.5 mM TCEP, 20 C; protein NMR: 20 mM sodium phosphate pH 6.5, 150 mM NaCl, 2 mM TCEP, 293 K. Conditions: protein: recombinant; tags: His-Trx, cleaved (3C); chain copies: 3; hairpin.
In data set [5] the target is T1, TRIM25 CC-PRY/SPRY. Description: ITC; KD1 of two sites; ITC: 20 mM MES pH 6.5, 75 mM NaCl, 0.5 mM TCEP, 20 C; protein NMR: 20 mM sodium phosphate pH 6.5, 150 mM NaCl, 2 mM TCEP, 293 K. To be noted: protein: recombinant; tags: His-Trx, cleaved (3C); chain copies: 2; hairpin.
Target sequence in this assay (Q14258 189-630): as above
The target in data set [6] is T4, TRIM25 CC-PRY/SPRY-m9 (Homo sapiens, UniProt Q14258 189-630, K283A;K285A;K320E;Y323E;H331E;K332E;H505E;K508E;K602E). Briefly: ITC; 300 uM RNA, 30 uM protein; ITC: 20 mM MES pH 6.5, 75 mM NaCl, 0.5 mM TCEP, 20 C; protein NMR: 20 mM sodium phosphate pH 6.5, 150 mM NaCl, 2 mM TCEP, 293 K. To be noted: protein: recombinant; tags: His-Trx, cleaved (3C); chain copies: 2; hairpin.

Data set [7] deals with the molecule itself. Description: SEC-MALS; 50 µl injected onto Superdex 200 5/150 GL in 20 mM MES, pH 6.5, 75 mM NaCl, 0.5 mM TCEP, 0.3 ml/min, room temperature.
The target in data set [8] is T3, TRIM25 PRY/SPRY. Briefly: NMR; CSPs in binding site 1 only; ITC: 20 mM MES pH 6.5, 75 mM NaCl, 0.5 mM TCEP, 20 C; protein NMR: 20 mM sodium phosphate pH 6.5, 150 mM NaCl, 2 mM TCEP, 293 K. Conditions: protein: recombinant; tags: His-Trx, cleaved (3C); single-stranded.
For data set [9], the target named is T2, TRIM25 CC. Description: ITC; ITC: 20 mM MES pH 6.5, 75 mM NaCl, 0.5 mM TCEP, 20 C; protein NMR: 20 mM sodium phosphate pH 6.5, 150 mM NaCl, 2 mM TCEP, 293 K. To be noted: protein: recombinant; tags: His-Trx, cleaved (3C); chain copies: 2; hairpin.
Data set [10] deals with T4, TRIM25 CC-PRY/SPRY-m9. Briefly: ITC; 200 uM RNA, 20 uM protein; ITC: 20 mM MES pH 6.5, 75 mM NaCl, 0.5 mM TCEP, 20 C; protein NMR: 20 mM sodium phosphate pH 6.5, 150 mM NaCl, 2 mM TCEP, 293 K. Conditions: protein: recombinant; tags: His-Trx, cleaved (3C); chain copies: 2; hairpin.
In a further data set the target is TRIM25 CC-m4 (Homo sapiens, UniProt Q14258 189-379, K320E;Y323E;H331E;K332E). Description: ITC; 400 uM RNA, 50 uM protein; ITC: 20 mM MES pH 6.5, 75 mM NaCl, 0.5 mM TCEP, 20 C; protein NMR: 20 mM sodium phosphate pH 6.5, 150 mM NaCl, 2 mM TCEP, 293 K. Conditions: protein: recombinant; tags: His-Trx, cleaved (3C); chain copies: 2; hairpin.
The next data set has as its target TRIM25 PRY/SPRY-m3 (Homo sapiens, UniProt Q14258 439-630, H505E;K508E;K602E). The data set is described as above. To be noted: protein: recombinant; tags: His-Trx, cleaved (3C); chain copies: 3; hairpin.
The target in a further data set is TRIM25 CC-m2 (Homo sapiens, UniProt Q14258 189-379, K283A;K285A). Briefly: ITC; enthalpy reduced about 10-fold; ITC: 20 mM MES pH 6.5, 75 mM NaCl, 0.5 mM TCEP, 20 C; protein NMR: 20 mM sodium phosphate pH 6.5, 150 mM NaCl, 2 mM TCEP, 293 K. To be noted: protein: recombinant; tags: His-Trx, cleaved (3C); chain copies: 2; hairpin.
Data set [11] addresses T3, TRIM25 PRY/SPRY. Briefly: ITC; Supplementary Table 1 first row (probably pre-let-7) reads 0.76-0.97 uM; ITC: 20 mM MES pH 6.5, 75 mM NaCl, 0.5 mM TCEP, 20 C; protein NMR: 20 mM sodium phosphate pH 6.5, 150 mM NaCl, 2 mM TCEP, 293 K. To be noted: protein: recombinant; tags: His-Trx, cleaved (3C); chain copies: 3; hairpin.
The target in data set [12] is T1, TRIM25 CC-PRY/SPRY. Briefly: ITC; KD1 of two sites, mean of replicates 0.25;0.03;0.02; ITC: 20 mM MES pH 6.5, 75 mM NaCl, 0.5 mM TCEP, 20 C; protein NMR: 20 mM sodium phosphate pH 6.5, 150 mM NaCl, 2 mM TCEP, 293 K. Conditions: protein: recombinant; tags: His-Trx, cleaved (3C); chain copies: 2; hairpin.
Target sequence in this assay (Q14258 189-630): as above
Data set [13] concerns the target T1, TRIM25 CC-PRY/SPRY. Description: ITC; KD1 of two sites, mean of replicates 0.015;0.016;0.011; ITC: 20 mM MES pH 6.5, 75 mM NaCl, 0.5 mM TCEP, 20 C; protein NMR: 20 mM sodium phosphate pH 6.5, 150 mM NaCl, 2 mM TCEP, 293 K. Conditions: protein: recombinant; tags: His-Trx, cleaved (3C); chain copies: 2; hairpin with bulge.
Target sequence in this assay (Q14258 189-630): as above
Data set [14] has as its target T3, TRIM25 PRY/SPRY. Briefly: ITC; mean of replicates 0.3;0.7;0.3;0.2;0.6; DENV-SL in cell; ITC: 20 mM MES pH 6.5, 75 mM NaCl, 0.5 mM TCEP, 20 C; protein NMR: 20 mM sodium phosphate pH 6.5, 150 mM NaCl, 2 mM TCEP, 293 K. Conditions: protein: recombinant; tags: His-Trx, cleaved (3C); chain copies: 3; hairpin with bulge.
Data set [15] addresses T3, TRIM25 PRY/SPRY. Description: ITC; ITC: 20 mM MES pH 6.5, 75 mM NaCl, 0.5 mM TCEP, 20 C; protein NMR: 20 mM sodium phosphate pH 6.5, 150 mM NaCl, 2 mM TCEP, 293 K. To be noted: protein: recombinant; tags: His-Trx, cleaved (3C); chain copies: 3; stem-loop (called 28-mer duplex RNA).

T3 sequence (Q14258 439-630): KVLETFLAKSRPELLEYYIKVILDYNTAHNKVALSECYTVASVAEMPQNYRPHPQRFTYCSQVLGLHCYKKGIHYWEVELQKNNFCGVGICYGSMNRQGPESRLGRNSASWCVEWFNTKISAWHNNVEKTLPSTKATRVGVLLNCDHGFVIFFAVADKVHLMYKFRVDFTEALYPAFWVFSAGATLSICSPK
TRIM25 PRY/SPRY-m3, sequence (Q14258 439-630 H505E/K508E/K602E): as the sequence (Q14258 439-630) above, with H67E, K70E, K164E counted along it

As to Lnczc3h7a loop, the Kd with TRIM25 CC-PRY/SPRY [1] is 18000 nM; with TRIM25 CC [2] it was 61000 nM.

B1: RNA_50_motif1&2 (structured_RNA)
RNA: UUAGUGGCAGACAAAGGCAUCGAGGCAGCCGCAGAAGUUGUCUGCGAAGU
Take B1: in the data set with TRIM25 CC-PRY/SPRY [3] (hairpin with bulge), the Kd was 3.5 nM.

B2: pre-let-7 stem (stem-fusion) (structured_RNA)
RNA: GUAUAGUUCAACUAUAC
In the case of B2, the binding result with TRIM25 PRY/SPRY [4] was “binds”.

B3: pre-let-7_modified (structured_RNA)
RNA: GUAUAGUUUAAAGAAUGGAUAACUAUAC
With B3, the Kd with TRIM25 CC-PRY/SPRY [5] turned out to be 180 nM. The binding result in the data set with TRIM25 CC-PRY/SPRY-m9 [6] was “no binding”.

B4: TRIM25 CC (aa 189–379) (domain or fragment, human, UniProt Q14258 189-379, looked up)
chain: ASLSQASADLEATLRHKLTVMYSQINGASRALDDVRNRQQDVRMTANRKVEQLQQEYTEMKALLDASETTSTRKIKEEEKRVNSKFDTIYQILLKKKSEIQTLKEEIEQSLTKRDEFEFLEKASKLRGISTKPVYIPEVELNHKLIKGIHQSTIDLKNELKQCIGRLQEPTPSSGDPGEHDPASTHKSTRP
notes: also called CC domain; coiled-coil (CC) dimerisation domain
For the molecule B4, the binding result in data set [7] was “binds”.

B5: TRIM25 CC-m2 (domain or fragment, human, UniProt Q14258 189-379, looked up)
chain: ASLSQASADLEATLRHKLTVMYSQINGASRALDDVRNRQQDVRMTANRKVEQLQQEYTEMKALLDASETTSTRKIKEEEKRVNSKFDTIYQILLAKASEIQTLKEEIEQSLTKRDEFEFLEKASKLRGISTKPVYIPEVELNHKLIKGIHQSTIDLKNELKQCIGRLQEPTPSSGDPGEHDPASTHKSTRP
As to B5, the binding result in data set [7] is recorded as “binds”.

B6: TRIM25 CC-m4 (domain or fragment, human, UniProt Q14258 189-379, looked up)
chain: ASLSQASADLEATLRHKLTVMYSQINGASRALDDVRNRQQDVRMTANRKVEQLQQEYTEMKALLDASETTSTRKIKEEEKRVNSKFDTIYQILLKKKSEIQTLKEEIEQSLTKRDEFEFLEKASKLRGISTEPVEIPEVELNEELIKGIHQSTIDLKNELKQCIGRLQEPTPSSGDPGEHDPASTHKSTRP
For the molecule B6, the binding result in [7] is “binds”.

B7: pre-let-7 loop (ssRNA)
RNA: UAAAAGGAGAU
As to B7, the binding result with TRIM25 PRY/SPRY [8] is given as “binds”.

B8: pre-let-7a-1@2 (pre-let-7) (structured_RNA)
RNA: GUAUAGUUUAAAAGGAGAUAACUAUAC
With B8, the Kd with TRIM25 CC-PRY/SPRY [3] (hairpin) was found to be 62 ± 44 nM; in the data set with TRIM25 CC [9], 3200 ± 700 nM; with TRIM25 CC-m2 it was 4000 ± 2000 nM; with TRIM25 PRY/SPRY [11] it was 4000 ± 1000 nM. Also, the binding result with TRIM25 CC-PRY/SPRY-m9 [10], with TRIM25 CC-m4 and with TRIM25 PRY/SPRY-m3 was “no binding” in each case.

B9: Lnczc3h7a-SL (structured_RNA)
RNA: UUUUAUCUGAGUUGGAGGUGAAG
With B9, the Kd with TRIM25 CC-PRY/SPRY [12] was determined as 100 nM.

B10: DENV-SL (structured_RNA)
RNA: GCAGGUCGGAUUAAGCCAUAGUACGGGAAAAACUAUGCUACCUG
On to B10, for which the Kd in the data set with TRIM25 CC-PRY/SPRY [13] turned out to be 14 nM; with TRIM25 PRY/SPRY [14] it was 420 nM.

B11: 28-mer (structured_RNA)
RNA: AUGGCUAGCUGGAGCCACCCGCAGUUCG
For the molecule B11, in the data set with TRIM25 PRY/SPRY [15], the Kd was determined as 900 nM.

For orientation: Kd means the equilibrium constant for the complex coming apart.

Values taken from publication PMC11445558, “The molecular dissection of TRIM25’s RNA-binding mechanism provides key insights into its antiviral activity” (Nature Communications, 2024).
